Measured values as given in publication PMC5881448 (The Journal of General Physiology, 2018).
Where no end group is shown, it is not given here.

Experiments:
[1] = molecular target: mEAG1 intrinsic-ligand peptide (mEAG1#696–702), fluorescein-labeled (mouse); assay: fluorescence polarisation
[2] = molecular target: hERG1 intrinsic-ligand peptide (hERG1#857–863), fluorescein-labeled (human) (UniProt Q12809); assay: fluorescence polarisation
[3] = system: zELKΔ740–742 channels; assay type: cell-based, Danio rerio; settings: inside-out patches, X. laevis oocytes, with or without MgATP

UniProt Q12809, sequence (Q12809 whole entry, looked up, tested part not stated): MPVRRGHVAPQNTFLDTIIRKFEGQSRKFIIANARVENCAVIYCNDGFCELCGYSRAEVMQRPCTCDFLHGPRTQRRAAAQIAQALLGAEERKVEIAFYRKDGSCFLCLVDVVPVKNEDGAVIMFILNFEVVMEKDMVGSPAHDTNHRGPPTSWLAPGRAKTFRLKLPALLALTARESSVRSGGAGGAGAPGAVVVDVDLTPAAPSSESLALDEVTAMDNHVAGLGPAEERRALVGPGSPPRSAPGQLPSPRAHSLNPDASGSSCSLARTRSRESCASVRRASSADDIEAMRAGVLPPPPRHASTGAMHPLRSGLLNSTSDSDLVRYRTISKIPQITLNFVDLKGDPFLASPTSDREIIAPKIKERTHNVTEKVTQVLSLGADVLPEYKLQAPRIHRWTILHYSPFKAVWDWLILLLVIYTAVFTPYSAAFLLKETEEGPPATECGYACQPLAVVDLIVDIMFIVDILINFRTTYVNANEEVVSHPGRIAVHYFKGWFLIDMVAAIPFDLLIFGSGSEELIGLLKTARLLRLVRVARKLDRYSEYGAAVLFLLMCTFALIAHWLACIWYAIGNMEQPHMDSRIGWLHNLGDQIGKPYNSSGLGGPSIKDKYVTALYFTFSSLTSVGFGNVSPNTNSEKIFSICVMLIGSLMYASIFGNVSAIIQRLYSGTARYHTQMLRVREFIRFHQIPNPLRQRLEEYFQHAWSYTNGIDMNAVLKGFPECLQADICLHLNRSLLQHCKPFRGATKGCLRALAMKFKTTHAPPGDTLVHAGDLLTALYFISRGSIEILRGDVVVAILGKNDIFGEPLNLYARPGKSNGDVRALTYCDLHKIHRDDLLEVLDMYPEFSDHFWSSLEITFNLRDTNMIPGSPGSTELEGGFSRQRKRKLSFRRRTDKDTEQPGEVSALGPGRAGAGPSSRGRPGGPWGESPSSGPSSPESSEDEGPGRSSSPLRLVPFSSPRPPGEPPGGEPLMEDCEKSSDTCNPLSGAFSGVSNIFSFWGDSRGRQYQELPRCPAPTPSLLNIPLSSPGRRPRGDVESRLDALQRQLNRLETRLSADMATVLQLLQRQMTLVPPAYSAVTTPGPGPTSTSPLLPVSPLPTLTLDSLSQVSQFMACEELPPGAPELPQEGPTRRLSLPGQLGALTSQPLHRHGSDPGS

Substance | Kd [1] [µM] | Kd [2] [µM] | modulation of zELKΔ740–742 channels regardless of MgATP [3]
MBP–C-linker/CNBHD of zELK channel (Q543–L750), wild type (domain or fragment) | 85 | – | –
MBP–C-linker/CNBHDΔ740–742 of zELK channel (Q543–L750 without Y740–L742) (domain or fragment) | 37 | 90 | –
hERG1 peptide: intrinsic-ligand peptide from hERG1 channels (#857–863) (EITFNLR; also: fluorescein label, position not given here) | – | – | did not produce an appreciable amount of modulation
